B1: his-EmGFP-DBNL(1-256) (domain or fragment)
chain: not shown
B2: endogenous human drebrin-like protein (DBNL) (natural protein)
chain: not shown
B3: his-EmGFP-DBNL(1-374) (domain or fragment)
chain: not shown

What was measured:
[1] = molecular target: the molecule itself; assay: fluorescence correlation spectroscopy
[2] = molecular target: the molecule itself; assay: native gel or EMSA

Protein	binding result [1]	stoichiometry N [2]
B1	binds	
B2		2
B3	binds	
